{
  "source": "paper PMC12151148",
  "about": "(2024)",
  "binders": {"B1": {"name": "Insc (18–66) (domain or fragment)", "chain": "WGLWGAQESRRLCCVGPDRCGQALLQIGINMMALPGGRHLDSVPLQEQR"}, "B2": {"name": "LGN-TPR (1–409) (domain or fragment)", "chain": "MREDHSFHVRYRMEASCLELALEGERLCKSGDCRAGVSFFEAAVQVGTEDLKTLSAIYSQLGNAYFYLHDYAKALEYHHHDLTLARTIGDQLGEAKASGNLGNTLKVLGNFDEAIVCCQRHLDISRELNDKVGEARALYNLGNVYHAKGKSFGCPGPQDTGEFPEDVRNALQAAVDLYEENLSLVTALGDRAAQGRAFGNLGNTHYLLGNFRDAVIAHEQRLLIAKEFGDKAAERRAYSNLGNAYIFLGEFETASEYYKKTLLLARQLKDRAVEAQSCYSLGNTYTLLQDYEKAIDYHLKHLAIAQELKDRIGEGRACWSLGNAYTALGNHDQAMHFAEKHLEISREVGDKSGELTARLNLSDLQMVLGLSYSTNNSMMSENIEIDGSLHGAGAKLGRRHSMENLELMK"}},
  "key": {"[1]": {"biological_target": "B2", "test": "ITC"}, "[2]": {"biological_target": "T1, AGS3-L (−23–405) (mouse)", "T1 chain": "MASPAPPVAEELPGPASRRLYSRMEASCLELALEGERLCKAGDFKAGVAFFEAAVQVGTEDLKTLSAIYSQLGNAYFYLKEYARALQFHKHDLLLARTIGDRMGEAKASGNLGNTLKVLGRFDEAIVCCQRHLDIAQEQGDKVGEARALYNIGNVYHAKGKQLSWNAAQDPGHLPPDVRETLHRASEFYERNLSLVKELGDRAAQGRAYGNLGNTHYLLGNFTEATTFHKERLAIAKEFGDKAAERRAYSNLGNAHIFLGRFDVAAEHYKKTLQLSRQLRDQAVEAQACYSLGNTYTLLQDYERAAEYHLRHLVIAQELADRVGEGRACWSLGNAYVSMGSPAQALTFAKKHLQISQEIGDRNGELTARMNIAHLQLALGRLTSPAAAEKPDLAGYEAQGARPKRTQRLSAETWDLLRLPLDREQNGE", "test": "ITC"}, "[3]": {"biological_target": "T2, FL-AGS3-4E (mouse, UniProt Q6IR34)", "T2 sequence (Q6IR34 whole entry, looked up)": "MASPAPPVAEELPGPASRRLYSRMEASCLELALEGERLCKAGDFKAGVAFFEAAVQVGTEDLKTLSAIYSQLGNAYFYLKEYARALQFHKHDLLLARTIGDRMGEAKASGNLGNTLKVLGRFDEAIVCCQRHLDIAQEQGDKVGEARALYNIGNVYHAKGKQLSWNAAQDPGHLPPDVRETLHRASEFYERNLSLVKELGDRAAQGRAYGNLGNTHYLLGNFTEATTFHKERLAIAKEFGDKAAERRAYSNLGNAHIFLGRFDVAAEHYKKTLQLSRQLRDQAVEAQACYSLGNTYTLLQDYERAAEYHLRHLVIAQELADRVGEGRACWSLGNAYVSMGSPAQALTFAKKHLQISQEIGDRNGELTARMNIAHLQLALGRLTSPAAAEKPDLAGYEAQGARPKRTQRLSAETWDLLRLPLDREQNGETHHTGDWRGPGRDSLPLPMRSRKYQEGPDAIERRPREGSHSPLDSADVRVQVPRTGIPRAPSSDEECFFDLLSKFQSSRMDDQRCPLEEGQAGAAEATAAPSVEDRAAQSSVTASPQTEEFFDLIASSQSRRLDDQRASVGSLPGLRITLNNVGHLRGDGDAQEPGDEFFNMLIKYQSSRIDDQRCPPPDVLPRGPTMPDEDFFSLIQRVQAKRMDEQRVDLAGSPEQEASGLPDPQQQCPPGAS", "test": "ITC"}, "[4]": {"biological_target": "T3, FL-LGN-4E (mouse, UniProt Q8VDU0)", "T3 sequence (Q8VDU0 whole entry, looked up)": "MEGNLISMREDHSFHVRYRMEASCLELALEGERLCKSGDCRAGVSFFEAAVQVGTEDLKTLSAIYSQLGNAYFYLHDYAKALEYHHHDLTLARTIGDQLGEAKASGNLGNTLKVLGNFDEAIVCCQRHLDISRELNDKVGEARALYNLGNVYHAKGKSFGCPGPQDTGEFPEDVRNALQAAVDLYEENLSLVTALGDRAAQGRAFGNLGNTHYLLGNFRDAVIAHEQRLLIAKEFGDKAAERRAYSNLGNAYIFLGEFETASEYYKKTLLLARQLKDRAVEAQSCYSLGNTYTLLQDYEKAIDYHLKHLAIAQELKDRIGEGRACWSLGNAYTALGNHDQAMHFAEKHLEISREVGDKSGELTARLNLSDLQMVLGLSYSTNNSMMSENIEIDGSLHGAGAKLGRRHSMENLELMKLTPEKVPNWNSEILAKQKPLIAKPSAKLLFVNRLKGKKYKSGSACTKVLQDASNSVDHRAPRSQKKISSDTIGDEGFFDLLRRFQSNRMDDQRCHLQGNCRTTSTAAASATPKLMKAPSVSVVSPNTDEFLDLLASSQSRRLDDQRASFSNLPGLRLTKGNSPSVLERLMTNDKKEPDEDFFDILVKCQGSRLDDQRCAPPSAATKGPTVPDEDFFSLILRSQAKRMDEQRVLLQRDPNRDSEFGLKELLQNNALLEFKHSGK", "test": "ITC"}, "[5]": {"biological_target": "T4, AGS3-TPR (1–405) (mouse)", "T4 chain": "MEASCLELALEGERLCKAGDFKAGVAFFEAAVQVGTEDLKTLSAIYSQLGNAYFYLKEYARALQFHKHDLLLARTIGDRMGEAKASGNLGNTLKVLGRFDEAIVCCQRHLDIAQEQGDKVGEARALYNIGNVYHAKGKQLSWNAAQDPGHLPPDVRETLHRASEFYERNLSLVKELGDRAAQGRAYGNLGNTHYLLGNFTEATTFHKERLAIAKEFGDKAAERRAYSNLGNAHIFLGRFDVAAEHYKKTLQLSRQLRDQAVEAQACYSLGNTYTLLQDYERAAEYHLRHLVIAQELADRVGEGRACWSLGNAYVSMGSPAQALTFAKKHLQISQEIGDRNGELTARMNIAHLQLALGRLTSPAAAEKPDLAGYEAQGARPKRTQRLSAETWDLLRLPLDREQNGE", "test": "ITC; AGS3-TPR premixed with NuMA (1886–1912)"}, "[6]": {"biological_target": "B1", "test": "ITC"}, "[7]": {"biological_target": "T5, NuMA (1886–1912) (human, UniProt Q14980-2 1886-1912)", "T5 chain": "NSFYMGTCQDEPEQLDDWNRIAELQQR", "test": "ITC"}, "[8]": {"biological_target": "T6, AGS3-GL1234 (470–631) (mouse)", "T6 chain": "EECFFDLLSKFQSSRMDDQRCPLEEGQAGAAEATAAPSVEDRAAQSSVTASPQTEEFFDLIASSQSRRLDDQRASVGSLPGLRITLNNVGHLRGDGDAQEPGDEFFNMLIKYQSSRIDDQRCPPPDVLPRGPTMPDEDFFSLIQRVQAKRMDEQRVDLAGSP", "test": "ITC"}, "[9]": {"biological_target": "T7, LGN GL3 motif (mouse)", "T7 chain": "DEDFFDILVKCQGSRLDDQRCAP", "test": "ITC"}, "[10]": {"biological_target": "T8, LGN GL4 motif (mouse)", "T8 chain": "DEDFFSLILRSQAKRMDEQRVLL", "test": "ITC"}, "[11]": {"biological_target": "T9, LGN-GL1234 (483–650) (mouse)", "T9 chain": "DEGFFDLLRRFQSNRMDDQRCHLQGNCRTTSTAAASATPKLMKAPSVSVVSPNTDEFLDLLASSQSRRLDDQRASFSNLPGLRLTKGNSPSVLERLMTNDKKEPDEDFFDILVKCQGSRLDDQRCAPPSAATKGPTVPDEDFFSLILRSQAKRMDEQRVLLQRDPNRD", "test": "ITC"}},
  "data": [
    {"binder": "B1", "values": [
      {"measurement": "Kd", "setting": "[1]", "result": 980, "unit": "nM"},
      {"measurement": "Kd", "setting": "[2]", "result": 870, "unit": "nM"},
      {"measurement": "Kd", "setting": "[3]", "result": 290, "unit": "nM"},
      {"measurement": "Kd", "setting": "[4]", "result": 580, "unit": "nM"},
      {"measurement": "Kd", "setting": "[5]", "result": 12700, "unit": "nM"}
    ]},
    {"binder": "B2", "values": [
      {"measurement": "Kd", "setting": "[6]", "result": 980, "unit": "nM"},
      {"measurement": "Kd", "setting": "[7]", "result": 630, "unit": "nM"}
    ]},
    {"binder": "Gαi3⋅GDP (natural protein) MGCTLSAEDKAAVERSKMIDRNLREDGEKAAKEVKLLLLGAGESGKSTIVKQMKIIHEDGYSEDECKQYKVVVYSNTIQSIIAIIRAMGRLKIDFGEAARADDARQLFVLAGSAEEGVMTPELAGVIKRLWRDGGVQACFSRSREYQLNDSASYYLNDLDRISQSNYIPTQQDVLRTRVKTTGIVETHFTFKDLYFKMFDVGGQRSERKKWIHCFEGVTAIIFCVALSDYDLVLAEDEEMNRMHESMKLFDSICNNKWFTETSIILFLNKKDLFEEKIKRSPLTICYPEYTGSNTYEEAAAYIQCQFEDLNRRKDTKEIYTHFTCATDTKNVQFVFDAVTDVIIKNNLKECGLY", "values": [
      {"measurement": "Kd", "setting": "[8]", "result": 280, "unit": "nM"},
      {"measurement": "Kd", "setting": "[9]", "result": 42, "unit": "nM"},
      {"measurement": "Kd", "setting": "[10]", "result": 190, "unit": "nM"},
      {"measurement": "Kd", "setting": "[11]", "result": 260, "unit": "nM"}
    ]}
  ]
}
